The values below come from US20240352121A1 (published 2024).

Experiment [1] concerns the target human LAIR-1 fused to the zeta chain of CD3, on UT-140 reporter cells (UniProt P20963 31-164). The experiment is described as follows: cell binding (flow cytometry). (A flow cytometer gives signals particle by particle.)
Experiment [2] addresses T1, LAIR-1 (human; form used for the KD not stated) (UniProt Q6GTX8 22-165).
T1 chain: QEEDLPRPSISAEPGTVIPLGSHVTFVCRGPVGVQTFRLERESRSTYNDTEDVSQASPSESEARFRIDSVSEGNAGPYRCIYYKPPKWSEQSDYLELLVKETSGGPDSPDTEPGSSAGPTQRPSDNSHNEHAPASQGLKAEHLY
As to the kind of experiment: kinetic binding; replicate 1.

The target of experiment [3] is T1, LAIR-1 (human; form used for the KD not …). As to the kind of experiment: kinetic binding; replicate 3.
For experiment [4] the target is unchanged. The experiment is described as follows: kinetic binding; replicate 2.

Numbering of substitutions follows the chain as printed.

B1: hLAIR-1 mAb-Parent (antibody, V domains shown)
VH: EVQLVESGGGLVQPKGSLKLSCAASGFTFNTNAMYWVRQAPGKGLEWVARIRSKSSNYATYYADSVKDRFTISRDDSQSMLYLQMNNLKTEDTARYYCVRGGSGFFAYWGQGTLVTVSA
VL: DIQMAQSSSSFSVSLGDRVTITCKASEDIYIRLAWYQQKPGNAPRLLISTATSLETGVPSRFSGSGSGKDYTLSITSLQTEDVATYYCQQYWSTPYTFGGGTRLEIK
B1 returned an EC50 in experiment [1] of 0.15 nM.

B2: h11B3 LAIR-1 mAb, Anti-LAIR-1 Variant 6 (h11B3 VL-2 / h11B3 VH-3) (antibody, V domains shown)
VH: B1 VH with K15G, A49G, D64A, D68G, Q78K, S79N, M80T, N87S, R95V, A119S
VL: DIQMTQSPSSLSASLGDRVTITCKASEDIYIRLAWYQQKPGKAPRLLISTATSLETGVPSRFSGSGSGTDYTFTISSLQPEDIATYYCQQYWSTPYTFGGGTRLEIK
On to B2, for which the Kd in experiment [2] was 2.38 nM; in experiment [3], 2.34 nM.

B3: 11B3 hG1 (antibody, V domains shown)
VH: B1 VH
VL: DIQMAQSSSSFSVSLGDRVTITCKASEDIYIRLAWYQQKPGNAPRLLISTATSLETGVPSRFSGSGSGKDYTLSITSLQTEDVATYYCQQYWSTPYTFGGGTRLEIKR
Turning to B3, the Kd in experiment [2] amounted to 1.25 nM; in experiment [4], 1.16 nM; in experiment [3], 1.95 nM.

In general, EC50 refers to the concentration that produces a half-maximal response. A low value points to an effect from little substance. As a reminder, the Kd is the concentration at which binding is half-saturated. Low readings indicate tighter binding, high ones weaker binding.
